Where no end group is shown, it is not given here.
Test: First-order nonenzymatic deamidation of pentapeptides in Tris buffer
Format: physicochemical
Details: pH 7.4, 37.0° C., 0.15 M Tris HCl; Asn pentapeptides
Method in brief: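 Pentapeptides containing Asn or Gln in varied flanking sequences incubated at 37° C., pH 7.4, 0.15 M Tris buffer; first-order deamidation rates measured. Some Asn values estimated from remaining data; many Gln values derived from surface fitting rather than measured.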

Substance | First-Order Deamidation Halftimes of GlyXxxAsnYyyGly [days]
GlyThrAsnGlyGly (GTNGG; printed: GlyThrAsnGlyGly) | 1.04
GlyPheAsnValGly (GFNVG; printed: GlyPheAsnValGly) | 203
GlyLeuAsnAspGly (GLNDG; printed: GlyLeuAsnAspGly) | 32.1
GlyAspAsnCysGly (GDNCG; printed: GlyAspAsnCysGly) | 54.1
GlySerAsnSerGly (GSNSG; printed: GlySerAsnSerGly) | 15.1
GlyLysAsnAlaGly (GKNAG; printed: GlyLysAsnAlaGly) | 23.6
GlyMetAsnAspGly (GMNDG; printed: GlyMetAsnAspGly) | 26.4
GlyAmCysAsnAlaGly (CNAG; not fully specified (N-terminus); printed as GlyAmCysAsnAlaGly) | 21.5
GlyPheAsnPheGly (GFNFG; printed: GlyPheAsnPheGly) | 69.5
GlyCysAsnAlaGly (GCNAG; printed: GlyCysAsnAlaGly) | 26.4
GlyCysAsnGlyGly (GCNGG; printed: GlyCysAsnGlyGly) | 1.14
GlyCysAsnGluGly (GCNEG; printed: GlyCysAsnGluGly) | 48.3
GlyCysAsnProGly (GCNPG; printed: GlyCysAsnProGly) | 1550
GlyProAsnSerGly (GPNSG; printed: GlyProAsnSerGly) | 18.9
GlyLeuAsnMetGly (GLNMG; printed: GlyLeuAsnMetGly) | 62.6
GlyThrAsnLysGly (GTNKG; printed: GlyThrAsnLysGly) | 57.6
GlyLeuAsnAmCysGly | 33.6
GlyThrAsnLeuGly (GTNLG; printed: GlyThrAsnLeuGly) | 110
GlyGluAsnIleGly (GENIG; printed: GlyGluAsnIleGly) | 279
GlyArgAsnThrGly (GRNTG; printed: GlyArgAsnThrGly) | 50.7
GlyAmCysAsnHisGly (CNHG; not fully specified (N-terminus); printed as GlyAmCysAsnHisGly) | 10.9

Substance | First-Order Deamidation Halftimes of GlyXxxAsnYyyGly [days]
GlyCysAsnValGly (GCNVG; printed: GlyCysAsnValGly) | 229
GlyMetAsnAmCysGly | 33.8
GlyHisAsnLeuGly (GHNLG; printed: GlyHisAsnLeuGly) | 116
GlyMetAsnArgGly (GMNRG; printed: GlyMetAsnArgGly) | 58.8
GlyHisAsnAspGly (GHNDG; printed: GlyHisAsnAspGly) | 31.2
GlyAspAsnHisGly (GDNHG; printed: GlyAspAsnHisGly) | 9.7
GlyGluAsnTrpGly (GENWG; printed: GlyGluAsnTrpGly) | 98.4
GlyCysAsnLysGly (GCNKG; printed: GlyCysAsnLysGly) | 46.6
GlyTrpAsnPheGly (GWNFG; printed: GlyTrpAsnPheGly) | 71.1
GlyTrpAsnAspGly (GWNDG; printed: GlyTrpAsnAspGly) | 43.6
GlyAlaAsnIleGly (GANIG; printed: GlyAlaAsnIleGly) | 300
GlyArgAsnMetGly (GRNMG; printed: GlyArgAsnMetGly) | 74.4
GlyCysAsnIleGly (GCNIG; printed: GlyCysAsnIleGly) | 304
GlyAspAsnAspGly (GDNDG; printed: GlyAspAsnAspGly) | 29.4
GlyArgAsnValGly (GRNVG; printed: GlyArgAsnValGly) | 247
GlyAlaAsnLeuGly (GANLG; printed: GlyAlaAsnLeuGly) | 124
GlyTyrAsnAspGly (GYNDG; printed: GlyTyrAsnAspGly) | 28.4
GlyMetAsnAlaGly (GMNAG; printed: GlyMetAsnAlaGly) | 22.1
GlyCysAsnPheGly (GCNFG; printed: GlyCysAsnPheGly) | 73.9
GlyTyrAsnLeuGly (GYNLG; printed: GlyTyrAsnLeuGly) | 118

Same assay, conditions: pH 7.4, 37.0 ° C., 0.15 M Tris HCl; Gln pentapeptides; 52 values measured, rest derived from surface fitting

Substance | First-Order Deamidation Halftimes of GlyXxxGlnYyyGly [days]
GlyValGlnLysGly (GVQKG; printed: GlyValGlnLysGly) | 5200
GlyIleGlnThrGly (GIQTG; printed: GlyIleGlnThrGly) | 5300
GlyAspGlnMetGly (GDQMG; printed: GlyAspGlnMetGly) | 5200
GlyHisGlnPheGly (GHQFG; printed: GlyHisGlnPheGly) | 8600
GlyProGlnLysGly (GPQKG; printed: GlyProGlnLysGly) | 5500
GlyLysGlnPheGly (GKQFG; printed: GlyLysGlnPheGly) | 7000
GlyThrGlnTrpGly (GTQWG; printed: GlyThrGlnTrpGly) | 9700
GlyCysGlnGlyGly (GCQGG; printed: GlyCysGlnGlyGly) | 560
GlyPheGlnValGly (GFQVG; printed: GlyPheGlnValGly) | 7100
GlyMetGlnLeuGly (GMQLG; printed: GlyMetGlnLeuGly) | 5000
GlyMetGlnAspGly (GMQDG; printed: GlyMetGlnAspGly) | 6200
GlyCysGlnValGly (GCQVG; printed: GlyCysGlnValGly) | 5000
GlyIleGlnAlaGly (GIQAG; printed: GlyIleGlnAlaGly) | 6200
GlyPheGlnAlaGly (GFQAG; printed: GlyPheGlnAlaGly) | 6300
GlyProGlnCysGly (GPQCG; printed: GlyProGlnCysGly) | 1600
GlyCysGlnSerGly (GCQSG; printed: GlyCysGlnSerGly) | 3800

Substance | First-Order Deamidation Halftimes of GlyXxxGlnYyyGly [days]
GlyHisGlnAlaGly (GHQAG; printed: GlyHisGlnAlaGly) | 7200
GlyLeuGlnIleGly (GLQIG; printed: GlyLeuGlnIleGly) | 6500
GlyTyrGlnIleGly (GYQIG; printed: GlyTyrGlnIleGly) | 7900
GlyTrpGlnHisGly (GWQHG; printed: GlyTrpGlnHisGly) | 7500
GlyIleGlnGluGly (GIQEG; printed: GlyIleGlnGluGly) | 7700
GlyArgGlnValGly (GRQVG; printed: GlyArgGlnValGly) | 5800
GlyGluGlnCysGly (GEQCG; printed: GlyGluGlnCysGly) | 2100
GlyProGlnTyrGly (GPQYG; printed: GlyProGlnTyrGly) | 10000
GlySerGlnMetGly (GSQMG; printed: GlySerGlnMetGly) | 5100
GlyThrGlnGluGly (GTQEG; printed: GlyThrGlnGluGly) | 5900
GlyAspGlnLysGly (GDQKG; printed: GlyAspGlnLysGly) | 4600
GlyTyrGlnAlaGly (GYQAG; printed: GlyTyrGlnAlaGly) | 7300
GlyPheGlnIleGly (GFQIG; printed: GlyPheGlnIleGly) | 6400
GlyCysGlnTrpGly (GCQWG; printed: GlyCysGlnTrpGly) | 9100
GlyIleGlnLeuGly (GIQLG; printed: GlyIleGlnLeuGly) | 6300

From patent US20050118674A1, “Engineering of Controlled Deamidation Rates in Peptides, Proteins, and Similar Structures” (priority 2003, published 2005)
